Assay [1] concerns the target Cdk7(R167A)/Cyclin H binary complex (human, UniProt P50613 2-346; P51946 1-323, R167A). Briefly: cell-based or functional assay.
Assay [2] addresses T1, wild-type Cdk7/Cyclin H binary complex, doubly phosphorylated (human, UniProt P50613 2-346; P51946 1-323, phosphoserine at 164; phosphothreonine at 170 | M1 acetylated). As to the kind of experiment: cell-based or functional assay.
For assay [3], the target named is T1, wild-type Cdk7/Cyclin H binary complex, …. As to the kind of experiment: SPR; MBP-Mat1(230-309) (15 nM) captured by anti-MBP antibody amine-coupled to a CM5 chip; Cdk7/Cyclin H complexes as analyte, multi-cycle kinetics, up to 150 nM, association 180 s, dissociation 900 s; 25 °C; 10 mM HEPES pH 7.4, 150 mM NaCl, 0.05% Tween20; steady-state affinity fit; Biacore 8K. Particulars: both partners purified. A general note: In SPR one partner is held on a chip, and binding of the other changes the refractive index at the surface.

Assay [4] has as its target T2, Mat1 (230-309) (human, UniProt P51948).
T2 construct: also called C-terminal fragment of Mat1; source: lysate pooled with GST-Cdk7/Cyclin H lysate; purified (MBPTrap, TEV, SEC, reverse MBP and GST); not shown: MBP, N-terminal, cleaved
As to the kind of experiment: crystal structure; Cdk7/Cyclin H/Mat1(230-309) mixed 1:1 with VHH RD7-04, with 1 mM ADP/Mg2+; hanging drop, 0.1 M Hepes pH 7.0, PEG 6K/4K, 15 °C; 2.15 Å. Particulars: both partners purified.

T1 sequence (P50613 2-346, chain 1 of 2): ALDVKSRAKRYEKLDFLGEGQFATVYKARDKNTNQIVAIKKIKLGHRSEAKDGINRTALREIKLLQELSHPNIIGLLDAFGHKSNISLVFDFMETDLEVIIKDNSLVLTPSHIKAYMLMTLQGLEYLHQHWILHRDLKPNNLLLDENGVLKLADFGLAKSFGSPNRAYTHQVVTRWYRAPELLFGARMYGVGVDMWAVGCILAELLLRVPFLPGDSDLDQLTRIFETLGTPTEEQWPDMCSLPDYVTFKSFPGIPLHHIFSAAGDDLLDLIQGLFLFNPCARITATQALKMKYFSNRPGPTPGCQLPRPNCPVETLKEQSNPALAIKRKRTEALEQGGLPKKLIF
T1 sequence (P51946 whole entry, chain 2 of 2): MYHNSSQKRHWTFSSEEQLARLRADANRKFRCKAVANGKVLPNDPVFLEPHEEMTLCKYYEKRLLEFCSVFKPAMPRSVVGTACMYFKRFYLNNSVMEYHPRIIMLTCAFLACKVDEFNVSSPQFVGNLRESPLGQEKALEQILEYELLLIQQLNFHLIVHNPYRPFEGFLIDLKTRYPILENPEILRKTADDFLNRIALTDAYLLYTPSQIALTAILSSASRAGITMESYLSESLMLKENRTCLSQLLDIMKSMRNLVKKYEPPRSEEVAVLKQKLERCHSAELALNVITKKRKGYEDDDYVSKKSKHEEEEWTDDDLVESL
Sequence of Cdk7(R167A)/Cyclin H binary complex (P50613 2-346 R167A, chain 1 of 2): as the sequence (P50613 2-346, chain 1 of 2) above, with R166A counted along it
Sequence of Cdk7(R167A)/Cyclin H binary complex (P51946 whole entry, chain 2 of 2): as the sequence (P51946 whole entry, chain 2 of 2) above

B1: MBP-Mat1_(230-309) (domain or fragment, human, UniProt P51948 230-309, looked up)
chain: GQHISLAPIHKLEEALYEYQPLQIETYGPHVPELEMLGRLGYLNHVRAASPQDLAGGYTSSLACHRALQDAFSGLFWQPS
notes: source: Sf9 (baculovirus), expressed separately from Cdk7/Cyclin H; purified as an MBP fusion protein; also in lysate (pooled with GST-Cdk7/Cyclin H lysate); not shown: MBP, N-terminal, kept
Broadly, the Kd is the concentration at which binding is half-saturated. Higher therefore signals a looser complex. In the case of B1, the “stimulation of kinase activity by Mat1 addition, normalized to the complex without Mat1 (Fig. 3f)” value in assay [1] was ~5 fold; in assay [2], ~10 fold. Besides, the Kd in assay [3] is 9.8 nM.

B2: VHH_(RD7-04), form for co-crystallization (VHH)
VHH: QVQLVESGGGLVQPGGSLRLSCVASGFTFKNFYMGWVRQAPDKGLEWVATINSGGEIQSYADSVKGRFTISRDNAKNTLYLQMNNLRPEDTAVYYCSKQSSTPAKGQGTQVTVSS
notes: nanobody chain of the deposited structure PDB 8PYR; Expression construct pelB-His6-TEV-NB in a modified pET28a vector; also called nanobody VHH RD7-04; chaperoning nanobody; source: E. coli BL21 (DE3), periplasmic extract, purified (HisTrap, TEV, SEC, reverse Ni-NTA); not shown: His6, N-terminal, cleaved
For B2, in assay [4], the binding result was “binds”.

The values above are taken from paper PMC11297931, “Structural basis of Cdk7 activation by dual T-loop phosphorylation” (Nature Communications, 2024).
